Source: the supplement of paper PMC10567573

B1: IRX6 (parent)
chain: YPCLEKPRIWSLAHTATASAVEGA
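Further: lentivirally expressed fusions sorted by FACS into six bins by GFP to DsRed ratio, PSI derived from sequencing read proportions per bin multiplied by bin number.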

Variants of: B1
Test: protein stability index of a GFP-peptide fusion (GPS, HEK-293T) (PSI 1-6); higher = more stable
Details: c terminus: a fixed tail appended
Variant YPCLEKPRIESLAHTATASAVEGA [W10E] has a protein stability index of 4.71. Variant YPCLEKPRIQSLAHTATASAVEGA [W10Q] has a protein stability index of 4.16. In the case of YPCLEKPRITSLAHTATASAVEGA [W10T], the protein stability index is reported as 4.09. For YPCLEKPRIASLAHTATASAVEGA [W10A], the protein stability index was 4.14. YPCLEKPRIKSLAHTATASAVEGA [W10K] showed a protein stability index of 4.42. YPCLEKPRIISLAHTATASAVEGA [W10I] showed a protein stability index of 3.27. With YPCLEKPRIRSLAHTATASAVEGA [W10R] the protein stability index was 4.26. Work on YPCLEKPRIHSLAHTATASAVEGA [W10H] yielded a protein stability index of 4.23. Variant YPCLEKPRINSLAHTATASAVEGA [W10N] has a protein stability index of 4.27. YPCLEKPRIDSLAHTATASAVEGA [W10D] gave a protein stability index of 4.13. YPCLEKPRIMSLAHTATASAVEGA [W10M] gave a protein stability index of 3.65. Work on YPCLEKPRIPSLAHTATASAVEGA [W10P] yielded a protein stability index of 4.3. With YPCLEKPRIVSLAHTATASAVEGA [W10V] the protein stability index was 3.85. For YPCLEKPRICSLAHTATASAVEGA [W10C], the protein stability index was 3.19. YPCLEKPRIGSLAHTATASAVEGA [W10G] showed a protein stability index of 4. With YPCLEKPRIFSLAHTATASAVEGA [W10F] the protein stability index was 1.98. YPCVEKPRIWSLAHTATASAVEGA [L4V] gave a protein stability index of 2.07. Variant YPCMEKPRIWSLAHTATASAVEGA [L4M] has a protein stability index of 4.4. Work on YPCFEKPRIWSLAHTATASAVEGA [L4F] yielded a protein stability index of 2.58. YPCEEKPRIWSLAHTATASAVEGA [L4E] gave a protein stability index of 2.64. Work on YPCAEKPRIWSLAHTATASAVEGA [L4A] yielded a protein stability index of 4.55. In the case of YPCWEKPRIWSLAHTATASAVEGA [L4W], the protein stability index is reported as 2.68. YPCSEKPRIWSLAHTATASAVEGA [L4S] gave a protein stability index of 1.81. For YPCYEKPRIWSLAHTATASAVEGA [L4Y], the protein stability index was 2.53. Work on YPCIEKPRIWSLAHTATASAVEGA [L4I] yielded a protein stability index of 2.46. With YPCQEKPRIWSLAHTATASAVEGA [L4Q] the protein stability index was 1.49. Work on YPCTEKPRIWSLAHTATASAVEGA [L4T] yielded a protein stability index of 3.03. With YPCKEKPRIWSLAHTATASAVEGA [L4K] the protein stability index was 2.37. Work on YPCPEKPRIWSLAHTATASAVEGA [L4P] yielded a protein stability index of 2.5. For YPCLEFPRIWSLAHTATASAVEGA [K6F], the protein stability index was 2.54. With YPCLELPRIWSLAHTATASAVEGA [K6L] the protein stability index was 1.2. In the case of YPCLEMPRIWSLAHTATASAVEGA [K6M], the protein stability index is reported as 2.41. In the case of YPCLEPPRIWSLAHTATASAVEGA [K6P], the protein stability index is reported as 2.1. Variant YPCLENPRIWSLAHTATASAVEGA [K6N] has a protein stability index of 1.48. In the case of YPCLEIPRIWSLAHTATASAVEGA [K6I], the protein stability index is reported as 1.59. Variant YPCLEHPRIWSLAHTATASAVEGA [K6H] has a protein stability index of 1.79. Work on YPCLESPRIWSLAHTATASAVEGA [K6S] yielded a protein stability index of 3.68. With YPCLERPRIWSLAHTATASAVEGA [K6R] the protein stability index was 1.88. YPCLEGPRIWSLAHTATASAVEGA [K6G] showed a protein stability index of 2.34. YPCLEWPRIWSLAHTATASAVEGA [K6W] showed a protein stability index of 2.69. YPCLEVPRIWSLAHTATASAVEGA [K6V] gave a protein stability index of 2.61. YPPLEKPRIWSLAHTATASAVEGA [C3P] showed a protein stability index of 2.12. Variant YPKLEKPRIWSLAHTATASAVEGA [C3K] has a protein stability index of 3.76. YPRLEKPRIWSLAHTATASAVEGA [C3R] gave a protein stability index of 2.76. Variant YPVLEKPRIWSLAHTATASAVEGA [C3V] has a protein stability index of 1.66. Work on YPLLEKPRIWSLAHTATASAVEGA [C3L] yielded a protein stability index of 1.86. Work on YPSLEKPRIWSLAHTATASAVEGA [C3S] yielded a protein stability index of 2.46. YPMLEKPRIWSLAHTATASAVEGA [C3M] showed a protein stability index of 2.28. In the case of YPYLEKPRIWSLAHTATASAVEGA [C3Y], the protein stability index is reported as 1.54. YPTLEKPRIWSLAHTATASAVEGA [C3T] showed a protein stability index of 2.85. Work on YPNLEKPRIWSLAHTATASAVEGA [C3N] yielded a protein stability index of 1.37. YPWLEKPRIWSLAHTATASAVEGA [C3W] showed a protein stability index of 1.68. For YPQLEKPRIWSLAHTATASAVEGA [C3Q], the protein stability index was 2.14. Work on YPCLEKPRIWYLAHTATASAVEGA [S11Y] yielded a protein stability index of 2.16. Work on YPCLEKPRIWMLAHTATASAVEGA [S11M] yielded a protein stability index of 1.82. Work on YPCLEKPRIWVLAHTATASAVEGA [S11V] yielded a protein stability index of 1.99. With YPCLEKPRIWRLAHTATASAVEGA [S11R] the protein stability index was 2.05. With YPCLEKPRIWQLAHTATASAVEGA [S11Q] the protein stability index was 1.53. Work on YPCLEKPRIWLLAHTATASAVEGA [S11L] yielded a protein stability index of 1.87. With YPCLEKPRIWFLAHTATASAVEGA [S11F] the protein stability index was 1.94. YPCLEKPRIWHLAHTATASAVEGA [S11H] gave a protein stability index of 1.86. In the case of YPCLEKPRIWELAHTATASAVEGA [S11E], the protein stability index is reported as 1.99. YPCLEKPRIWNLAHTATASAVEGA [S11N] gave a protein stability index of 2.31. In the case of YPCLEKPRIWKLAHTATASAVEGA [S11K], the protein stability index is reported as 2.58. YPCLEKPRIWALAHTATASAVEGA [S11A] gave a protein stability index of 1.3. YPCLEKPRIWDLAHTATASAVEGA [S11D] showed a protein stability index of 1.74. Variant YPCLEKPRIWCLAHTATASAVEGA [S11C] has a protein stability index of 1.61. With YPCLEKPRIWILAHTATASAVEGA [S11I] the protein stability index was 2.48. Work on YPCLEKPRIWSLDHTATASAVEGA [A13D] yielded a protein stability index of 2.71. For YPCLEKPRIWSLGHTATASAVEGA [A13G], the protein stability index was 2.44. Variant YPCLEKPRIWSLMHTATASAVEGA [A13M] has a protein stability index of 1.35. Work on YPCLEKPRIWSLIHTATASAVEGA [A13I] yielded a protein stability index of 3.27. YPCLEKPRIWSLYHTATASAVEGA [A13Y] showed a protein stability index of 3.33. In the case of YPCLEKPRIWSLHHTATASAVEGA [A13H], the protein stability index is reported as 2.74. Variant YPCLEKPRIWSLPHTATASAVEGA [A13P] has a protein stability index of 2.35. YPCLEKPRIWSLTHTATASAVEGA [A13T] showed a protein stability index of 1.96. YPCLEKPRIWSLEHTATASAVEGA [A13E] showed a protein stability index of 2.17. In the case of YPCLEKPRIWSLQHTATASAVEGA [A13Q], the protein stability index is reported as 2.46. In the case of YPCLEKPRIWSLKHTATASAVEGA [A13K], the protein stability index is reported as 2.9. For YPCLEKPRIWSLVHTATASAVEGA [A13V], the protein stability index was 3.26. YPCLEKPRIWSEAHTATASAVEGA [L12E] showed a protein stability index of 1.7. In the case of YPCLEKPRIWSTAHTATASAVEGA [L12T], the protein stability index is reported as 2.72. For YPCLEKPRIWSCAHTATASAVEGA [L12C], the protein stability index was 3.12. In the case of YPCLEKPRIWSRAHTATASAVEGA [L12R], the protein stability index is reported as 2.19. YPCLEKPRIWSMAHTATASAVEGA [L12M] gave a protein stability index of 2.36. With YPCLEKPRIWSNAHTATASAVEGA [L12N] the protein stability index was 1.72. With YPCLEKPRIWSIAHTATASAVEGA [L12I] the protein stability index was 2.81. YPCLEKPRIWSQAHTATASAVEGA [L12Q] showed a protein stability index of 2.87. For YPCLEKPRIWSKAHTATASAVEGA [L12K], the protein stability index was 2.72. With YPCLEKPRIWSGAHTATASAVEGA [L12G] the protein stability index was 2.03. Work on YPCLEKPRIWSPAHTATASAVEGA [L12P] yielded a protein stability index of 3.53. With YPCLEKPRIWSVAHTATASAVEGA [L12V] the protein stability index was 1.58. For YPCLEKPRIWSDAHTATASAVEGA [L12D], the protein stability index was 2.91. YPCLEKPRIWSFAHTATASAVEGA [L12F] showed a protein stability index of 2.26.
